15 molecules from US20250195685A1 (CAPSTAN THERAPEUTICS, published 2025) can be followed below.

Usually Kd stands for the constant that tells how readily two partners part at equilibrium. In general, koff refers to the rate constant with which the complex falls apart. Broadly, the kon is the rate constant with which the complex forms.

Experiment [1] concerns the target T1, human CD8αα homodimer, recombinant protein (Acro Biosystems) (human, UniProt P01732 22-182).
T1 construct: also called CD8αα antigen; biotinylated CD8α recombinant protein (CDA-H82E3)
The experiment can be described thus: BLI kinetic rate analysis, Fab fragment (temperature not given). Here is the method: (§1) Biolayer interferometry kinetic assays were performed using a GatorBio Gator Plus BLI system. Kinetic buffer containing PBS plus 0.1% Tween 20 and 0.2% BSA was used for calculating the baseline. To measure the binding kinetics of anti-CD8α antibody fragment (Fab), streptavidin-immobilized SA-XT sensors (#160029, Gator Bio) were prehydrated in the kinetic buffer and loaded with […] biotinylated CD8α recombinant protein (CDA-H82E3, Acro Biosystems) at a spin speed of 400 rpm to a threshold response of 10 nm. The sensors were then incubated in the kinetic buffer for 300 s to acquire a baseline measurement prior to each association. […] The antigen-loaded sensors were incubated in the diluted solutions to capture Fab fragments for 300 s to record the association phase. Sensors were finally incubated in the kinetic buffer for 900 s to record the dissociation phase. The spin speed for all steps except the antigen loading step was 1000 rpm. The temperature of the performed assays was either 30° C. or 37° C. during the association and dissociation phases. Sensor data were baseline subtracted, and global curve fitting of the kinetic data from six different analyte concentrations at a 1:1 monovalent binding model was performed using GatorOne software (version v2.10) to determine kinetic rate constants (kₒₙ and koff) and equilibrium dissociation constants (KD) of the analyzed antibodies.
(Biolayer interferometry detects binding as a change in optical thickness at a sensor tip.)

Experiment [2] deals with T1, human CD8αα homodimer, recombinant …. The experiment can be described thus: BLI kinetic assay, engineered F(ab') fragment. The protocol: The global fitting was performed with a 1:1 fitting model using GatorOne software as described below.
as §1

The target is the same in experiment [3]. The experiment can be described thus: BLI steady state, whole hIgG1-LALAPA antibody on CD8α-His (Ni-NTA sensor), 30 °C. Here is the method:
To assess affinity of whole antibodies, steady state analysis was used as the bivalent nature of both whole antibody and CD8α complicates kinetic analysis. 50 nM CD8α-His (that is, CD8α with a C-terminal oligohistidine tag; Acro) was immobilized on Ni-NTA sensor probes. Binding was analyzed with a three-fold antibody dilutions series: 60 nM, 20 nM, 6.67 nM, 2.22 nM, 0.74 nM, and 0.25 nM. The antigen-loaded sensors were incubated in the diluted solutions to capture the whole IgG antibody for 300 s to record the association phase. Sensors were incubated in the kinetic buffer for 900 s to record the dissociation phase. The spin speed was 1000 rpm for all steps except the antigen loading step which was 400 rpm to control density of the antigen. The temperature of the performed assays was at 30° C. during the association and dissociation phases. The sensor data were baseline subtracted and further analyzed in GatorOne software (version 2.10) to determine the equilibrium dissociation constants (KD) of the antibodies by fitting the signals of the steady states to the 1:1 binding model.

T1 sequence (P01732 22-182 limits assumed): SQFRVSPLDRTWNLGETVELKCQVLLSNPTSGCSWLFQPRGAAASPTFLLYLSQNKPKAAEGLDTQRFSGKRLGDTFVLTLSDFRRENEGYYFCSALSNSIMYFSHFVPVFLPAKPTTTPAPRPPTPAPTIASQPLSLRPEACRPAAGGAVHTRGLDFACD

B1: CBD1445 Fab (VL D30A of CBD1033) (Fab, V domains shown)
VH: QVQLVQSGAEVKKPGASVKVSCKASRYTFTDYNLHWVRQAPGQGLEWMGFIYPYNGGTGYAQKFQGRVTMTVDTSTSTAYMELSSLRSEDTAVYYCARDHRYNEGVSFDYWGQGTTVTVSS
VL: DIQLTQSPSSLSASVGDRATITCRASESVAGFGNSFMNWYQQKPGKAPKLLIYLASNLESGVPSRFSGSGSGTDFTLTISSVQPEDFATYYCQQNNEDPYTFGQGTKLEIK
As to B1, in experiment [1], the Kd was determined as 15.6 nM, the koff came to 0.00048 s⁻¹ and the kon came out at 30700 M⁻¹ s⁻¹.

B2: CBD1033.44 disulfide-engineered F(ab') analog (IgG1, truncated T238) (Fab, V domains shown)
VH: QVQLVQSGAEVKKPGASVKVSCKASRYTFTDYNLHWVRQAPGQGLEWMGFIYPYNGGTGYAQKFQGRVTMTVDTSTSTAYMELSSLRSEDTAVYYCARDHRYNEGVSFDYWGQGTTVTVSS
VL: DIQLTQSPSSLSASVGDRATITCRASESVDGFGNSFMNWYQQKPGKAPKLLIYLASNLESGVPSRFSGSGSGTDFTLTISSVQPEDFATYYCQQNNEDPYTFGQGTKLEIKR
notes: also called .44 design
Turning to B2, in experiment [2], the Kd came out at 7.23 nM, the koff turned out to be 8.88e-05 s⁻¹ and the kon came out at 12300 M⁻¹ s⁻¹.

B3: CBD1033.42 disulfide-engineered F(ab') analog (IgG1, truncated P240) (Fab, V domains shown)
VH: QVQLVQSGAEVKKPGASVKVSCKASRYTFTDYNLHWVRQAPGQGLEWMGFIYPYNGGTGYAQKFQGRVTMTVDTSTSTAYMELSSLRSEDTAVYYCARDHRYNEGVSFDYWGQGTTVTVSS
VL: DIQLTQSPSSLSASVGDRATITCRASESVDGFGNSFMNWYQQKPGKAPKLLIYLASNLESGVPSRFSGSGSGTDFTLTISSVQPEDFATYYCQQNNEDPYTFGQGTKLEIKR
notes: also called .42 design
B3: in experiment [2], the Kd worked out at 5.09 nM, the koff is 6.41e-05 s⁻¹ and the kon worked out at 12600 M⁻¹ s⁻¹.

B4: CBD1048 (antibody, human IgG1, kappa, L234A L235A, V domains shown)
VH: QVQLVQSGAEVKKPGASVKVSCKASRYTFTDYNLHWVRQAPGQGLEWMGFIYPYNGGTGYAQKFQGRVTLTVDYSTSTAYMELSSLRSEDTAVYYCARDHRYNEGVSFDYWGQGTLVTVSS
VL: EIVLTQSPGTLSLSPGERATLSCRASESVDGFGNSFMNWYQQKPGQAPRLLIYLASNLESGVPARFSGSGSRTDFTLTISRLEPEDFAVYYCQQNNEDPYTFGQGTKVEIKR
notes: also called h1017-H9/L6 whole antibody hIgG1-LALAPA
For the molecule B4, in experiment [3], the Kd stood at 5.45 nM.

B5: CBD1042 (antibody, human IgG1, kappa, L234A L235A, V domains shown)
VH: QVQLVQSGAEVKKPGASVKVSCKASRYTFTDYNLHWVRQAPGQGLEWIGFIYPYNGGTGYAQKFQGRVTITADTSTSTAYMELSSLRSEDTAVYYCARDHRYNEGVSFDYWGQGTLVTVSS
VL: EIVLTQSPGTLSLSPGERATLSCRASESVDGFGNSFMNWYQQKPGQAPRLLIYLASNLESGIPARFSGSGSGTDFTLTISRLEPEDFAVYYCQQNNEDPYTFGQGTKVEIKR
notes: also called h1017-H7/L4 whole antibody hIgG1-LALAPA
B5: the Kd in experiment [3] worked out at 3.59 nM.

B6: CBD1033.45 disulfide-engineered F(ab') analog (IgG1, truncated T238, C233S) (Fab, V domains shown)
VH: QVQLVQSGAEVKKPGASVKVSCKASRYTFTDYNLHWVRQAPGQGLEWMGFIYPYNGGTGYAQKFQGRVTMTVDTSTSTAYMELSSLRSEDTAVYYCARDHRYNEGVSFDYWGQGTTVTVSS
VL: DIQLTQSPSSLSASVGDRATITCRASESVDGFGNSFMNWYQQKPGKAPKLLIYLASNLESGVPSRFSGSGSGTDFTLTISSVQPEDFATYYCQQNNEDPYTFGQGTKLEIKR
notes: also called .45 design
B6: in experiment [2], the Kd worked out at 9.03 nM, the koff was determined as 0.000117 s⁻¹ and the kon came out at 13000 M⁻¹ s⁻¹.

B7: CBD1049 (antibody, human IgG1, kappa, L234A L235A, V domains shown)
VH: QVQLVQSGAEVKKPGASVKVSCKASRYTFTDYNLHWVRQAPGQGLEWIGFIYPYNGGTGYAQKFQGRVTLTVDYSTSTAYMELSSLRSEDTAVYYCARDHRYNEGVSFDYWGQGTLVTVSS
VL: EIVLTQSPGTLSLSPGERATLSCRASESVDGFGNSFMNWYQQKPGQAPRLLIYLASNLESGVPARFSGSGSGTDFTLTISRLEPEDFAVYYCQQNNEDPYTFGQGTKVEIKR
notes: also called h1017-H10/L5 whole antibody hIgG1-LALAPA
In the case of B7, the Kd in experiment [3] was found to be 3 nM.

B8: CBD1044 (antibody, human IgG1, kappa, L234A L235A, V domains shown)
VH: QVQLVQSGAEVKKPGASVKVSCKASRYTFTDYNLHWVRQAPGQGLEWIGFIYPYNGGTGYAQKFQGRVTITADTSTSTAYMELSSLRSEDTAVYYCARDHRYNEGVSFDYWGQGTLVTVSS
VL: EIVLTQSPGTLSLSPGERATLSCRASESVDGFGNSFMNWYQQKPGQAPRLLIYLASNLESGVPARFSGSGSRTDFTLTISRLEPEDFAVYYCQQNNEDPYTFGQGTKVEIKR
notes: also called h1017-H7/L6 whole antibody hIgG1-LALAPA
As to B8, in experiment [3], the Kd came to 8.65 nM.

B9: CBD1041 (antibody, human IgG1, kappa, L234A L235A, V domains shown)
VH: QVQLVQSGAEVKKPGASVKVSCKASRYTFTDYNLHWVRQAPGQGLEWMGFIYPYNGGTNYAQKFQGRVTITADTSTSTAYMELSSLRSEDTAVYYCARDHRYNEGVSFDYWGQGTLVTVSS
VL: EIVLTQSPGTLSLSPGERATLSCRASESVDGFGNSFMNWYQQKPGQAPRLLIYLASNLESGIPARFSGSGSGTDFTLTISRLEPEDFAVYYCQQNNEDPYTFGQGTKVEIKR
notes: also called h1017-H6/L4 whole antibody hIgG1-LALAPA
For the molecule B9, in experiment [3], the Kd stood at 10.2 nM.

B10: CBD1050 (antibody, human IgG1, kappa, L234A L235A, V domains shown)
VH: QVQLVQSGAEVKKPGASVKVSCKASRYTFTDYNLHWVRQAPGQGLEWIGFIYPYNGGTGYAQKFQGRVTLTVDYSTSTAYMELSSLRSEDTAVYYCARDHRYNEGVSFDYWGQGTLVTVSS
VL: EIVLTQSPGTLSLSPGERATLSCRASESVDGFGNSFMNWYQQKPGQAPRLLIYLASNLESGVPARFSGSGSRTDFTLTISRLEPEDFAVYYCQQNNEDPYTFGQGTKVEIKR
notes: also called h1017-H10/L6 whole antibody hIgG1-LALAPA
For B10, the Kd in experiment [3] amounted to 6.41 nM.

B11: CBD1622 Fab (VL D30S and VH N55Q of CBD1033) (Fab, V domains shown)
VH: QVQLVQSGAEVKKPGASVKVSCKASRYTFTDYNLHWVRQAPGQGLEWMGFIYPYQGGTGYAQKFQGRVTMTVDTSTSTAYMELSSLRSEDTAVYYCARDHRYNEGVSFDYWGQGTTVTVSS
VL: DIQLTQSPSSLSASVGDRATITCRASESVSGFGNSFMNWYQQKPGKAPKLLIYLASNLESGVPSRFSGSGSGTDFTLTISSVQPEDFATYYCQQNNEDPYTFGQGTKLEIK
notes: also called D30S and N55Q
Regarding B11, in experiment [1], the Kd came out at 2.91 nM, the koff was found to be 9.97e-05 s⁻¹ and the kon was 34300 M⁻¹ s⁻¹.

B12: CBD1046 (antibody, human IgG1, kappa, L234A L235A, V domains shown)
VH: QVQLVQSGAEVKKPGASVKVSCKASRYTFTDYNLHWVRQAPGQGLEWIGFIYPYNGGTGYAQKFKGRVTITADTSTSTAYMELSSLRSEDTAVYYCARDHRYNEGVSFDYWGQGTLVTVSS
VL: EIVLTQSPGTLSLSPGERATLSCRASESVDGFGNSFMNWYQQKPGQAPRLLIYLASNLESGVPARFSGSGSRTDFTLTISRLEPEDFAVYYCQQNNEDPYTFGQGTKVEIKR
notes: also called h1017-H8/L6 whole antibody hIgG1-LALAPA
For the molecule B12, the Kd in experiment [3] came to 9.78 nM.

B13: CBD1045 (antibody, human IgG1, kappa, L234A L235A, V domains shown)
VH: QVQLVQSGAEVKKPGASVKVSCKASRYTFTDYNLHWVRQAPGQGLEWIGFIYPYNGGTGYAQKFKGRVTITADTSTSTAYMELSSLRSEDTAVYYCARDHRYNEGVSFDYWGQGTLVTVSS
VL: EIVLTQSPGTLSLSPGERATLSCRASESVDGFGNSFMNWYQQKPGQAPRLLIYLASNLESGVPARFSGSGSGTDFTLTISRLEPEDFAVYYCQQNNEDPYTFGQGTKVEIKR
notes: also called h1017-H8/L5 whole antibody hIgG1-LALAPA
For the molecule B13, the Kd in experiment [3] came out at 4.18 nM.

B14: CBD1623 Fab (VL D30S and VH N55A of CBD1033) (Fab, V domains shown)
VH: QVQLVQSGAEVKKPGASVKVSCKASRYTFTDYNLHWVRQAPGQGLEWMGFIYPYAGGTGYAQKFQGRVTMTVDTSTSTAYMELSSLRSEDTAVYYCARDHRYNEGVSFDYWGQGTTVTVSS
VL: DIQLTQSPSSLSASVGDRATITCRASESVSGFGNSFMNWYQQKPGKAPKLLIYLASNLESGVPSRFSGSGSGTDFTLTISSVQPEDFATYYCQQNNEDPYTFGQGTKLEIK
notes: also called D30S and N55A
For the molecule B14, in experiment [1], the Kd was determined as 0.617 nM, the koff was 7.02e-05 s⁻¹ and the kon was determined as 114000 M⁻¹ s⁻¹.

B15: CBD1047 (antibody, human IgG1, kappa, L234A L235A, V domains shown)
VH: QVQLVQSGAEVKKPGASVKVSCKASRYTFTDYNLHWVRQAPGQGLEWMGFIYPYNGGTGYAQKFQGRVTLTVDYSTSTAYMELSSLRSEDTAVYYCARDHRYNEGVSFDYWGQGTLVTVSS
VL: EIVLTQSPGTLSLSPGERATLSCRASESVDGFGNSFMNWYQQKPGQAPRLLIYLASNLESGVPARFSGSGSGTDFTLTISRLEPEDFAVYYCQQNNEDPYTFGQGTKVEIKR
notes: also called h1017-H9/L5 whole antibody hIgG1-LALAPA
For B15, the Kd in experiment [3] is 2.72 nM.
